{
  "source": "patent US12643954B2",
  "about": "“Anti-CD36 antibodies and their use to treat cancer” (ONA Therapeutics, S.L., priority 2020, dated 2026)",
  "molecules": {"B1": {"name": "ONA-0-v1: murine IgA anti-CD36 antibody; heavy chain SEQ ID NO: 5, light chain SEQ ID NO: 7 (antibody)", "heavy": "QVQLKQSGADLVRPGASVKLSCKASGYTFTDYYINWVKQRPGQGLEWIARIYPGSGNTYYNEKFKGKATLTAEKSSSTAYMQLSSLTSEDSAVYFCARGIGGGFGMDYWGQGTSVTVSSESARNPTIYPLTLPPVLCSDPVIIGCLIHDYFPFGTMNVTWGKSGKDITTVNFPPALASGGRYTMSSQLTLPAVECPEGESVKCSVQHDSNPVQELDVNCSPTPPPPITIPSCQPSLSLQRPALEDLLLGSDASITCTLNGLRNPEGAAFTWEPSTGKDAVQKKAAQNSCGCYSVSSVLPGCAERWNSGASFKCTVTHPESGTLTGTIAKVTVNTFPPQVHLLPPPSEELALNELLSLTCLVRAFNPKEVLVRWLHGNEELSPESYLVFEPLKEPGEGATTYLVTSVLRVSAETWKQGDQYSCMVGHEALPMNFTQKTIDRLSGKPTNVSVSVIMSEGDGICY", "light": "SIVMTQTPKFLLVSAGDRITITCKASQSVSDDVAWYQQKPGQSPKLLIYYASNRYTGVPDRFTGSGYGTDFTFTISTVQAEDLAVYFCQQDYSSPLTFGAGTKLEIKRADAAPTVSIFPPSSEQLTSGGASVVCFLNNFYPKDINVKWKIDGSERQNGVLNSWTDQDSKDSTYSMSSTLTLTKDEYERHNSYTCEATHKTSTSPIVKSFNRNEC", "modifications": "ONA-0-v1 heavy chain; ONA-0-v1 light chain"}},
  "molecular_target": "CD36 (Homo sapiens, UniProt P16671)",
  "sequence (P16671 30-439 limits assumed)": "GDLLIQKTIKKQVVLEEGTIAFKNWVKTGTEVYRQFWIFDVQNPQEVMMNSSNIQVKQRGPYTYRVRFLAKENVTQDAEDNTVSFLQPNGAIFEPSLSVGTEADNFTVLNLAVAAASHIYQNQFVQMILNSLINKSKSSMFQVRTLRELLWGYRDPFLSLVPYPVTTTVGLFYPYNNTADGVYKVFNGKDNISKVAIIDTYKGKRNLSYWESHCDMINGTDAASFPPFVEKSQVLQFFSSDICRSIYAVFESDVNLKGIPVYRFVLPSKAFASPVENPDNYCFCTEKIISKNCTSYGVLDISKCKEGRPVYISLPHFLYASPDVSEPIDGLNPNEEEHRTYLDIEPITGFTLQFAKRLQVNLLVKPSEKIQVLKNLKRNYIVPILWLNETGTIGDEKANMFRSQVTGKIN",
  "test": "ELISA binding to plate-coated human CD36",
  "design": "purchased Sino Biological 10752-H08H",
  "settings": "recombinant human CD36 coated plates",
  "description": "To perform ELISA assays, 96-well ELISA plates were coated over night with human CD36 (Sino Biological, reference 10752-H08H) or mouse CD36 (Sino Biological, reference 50422-M08H) recombinant proteins at a concentration of 0.25 mg/ml. After two washes with PBS, plates were blocked with 4% skimmed milk in PBS for 1 hour at 37° C. Blocking solution was discarded and plates were washed five times with 200 μl/well PBS-Tween20 (0.5%). Primary antibodies were either omitted (control blocking solution treatment) or mixed in blocking solution at several dilutions ranging from 0.01 nM to 0.5 μM. The primary antibody solutions were added to the wells and incubated over night at 4° C. After 5 washes with 200 ul/well of PBS-Tween20 (0.5%), plates were incubated for 1 hour at room temperature with a goat anti-mouse HRP-conjugated antibody (Abeam, reference ab97235) diluted 1:2000 in blocking solution. Plates were then washed 5 times with 200 μl/well of PBS-Tween20 (0.5%), incubated with 100 μl/well TMB and detected after 10 minutes, 30 minutes, or 60 minutes with a spectrophotometer at a wave length of 630 nm.",
  "data": [
    {"molecule": "B1", "values": [
      {"measurement": "binding to human CD36 in ELISA", "value": "able to specifically bind"}
    ]}
  ]
}
